Laboratory results as given in paper PMC10144703, “Molecular Mechanism of Sirtuin 1 Inhibition by Human Immunodeficiency Virus 1 Tat Protein” (Life, 2023).
Where no end group is shown, it is not given here.

How the values were obtained:
[1] = biological target: T1, human mini-Sirt1 (aa 183-505-(GGGS)2-641-665) (Homo sapiens, UniProt Q96EB6); assay: FdL assay, mini-Sirt1; type: biochemical; settings: FdL-1 at substrate Km, 15% (v/v) DMSO, n = 3
T1 construct: aa 183-505-(GGGS)2-641-665; made in house; host or cells: E. coli CodonPlus(DE3)
T1 sequence (Q96EB6 with tags, fused parts or gaps limits assumed): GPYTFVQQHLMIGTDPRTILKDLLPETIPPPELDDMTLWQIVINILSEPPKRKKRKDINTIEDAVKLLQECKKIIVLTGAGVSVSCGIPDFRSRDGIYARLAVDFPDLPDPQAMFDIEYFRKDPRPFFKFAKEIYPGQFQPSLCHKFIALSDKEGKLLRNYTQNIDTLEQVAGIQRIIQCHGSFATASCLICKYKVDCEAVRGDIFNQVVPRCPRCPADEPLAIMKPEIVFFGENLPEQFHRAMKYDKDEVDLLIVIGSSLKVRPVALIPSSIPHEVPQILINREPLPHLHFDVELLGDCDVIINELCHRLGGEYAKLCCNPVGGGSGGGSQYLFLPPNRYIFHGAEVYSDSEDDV
From the text: (§1) A human mini-Sirt1 construct (aa 183-505-(GGGS)2-641-665), as described in [27], was generated in a modified pET-19b with a TEV cleavage site. This construct and human full-length Sirt1 (fl-Sirt1) in pET-15b, Sirt1-(183-664) and Sirt1-(214-664) in pET-15b, mini-Sirt1-∆SBD (aa 214-505-(GGGS)2-641-665) and mini-Sirt1-∆ESA (aa 183–505) in a modified pET-19b with TEV cleavage site, Sirt2-(43-356) in a modified pET-19b with a His6-Sumo tag, Sirt3-(93-399) in a modified pET-32a with Trx-His6 tag and TEV cleavage site, hSirt3-(118-399) in pVFT3S (Sungkyunkwan University, Seoul, Republic of Korea) with His6-Trx tag and TEV cleavage site, Sirt5-(34-302) in pET-151/D-TOPO, and Sirt6-(1-355) in pQE80L.1 were purified as described. Shortly, proteins were expressed at 20 °C (mini-Sirt1 constructs at 16 °C) in E. coli CodonPlus(DE3), cell lysates were cleared by centrifugation, and proteins were purified via affinity chromatography using a nickel NTA column. After digestion with thrombin or TEV protease, proteins were re-run over the nickel NTA column, pooled, and concentrated. The samples were, then, subjected either directly to size exclusion chromatography in 50 mM Tris/HCl, pH 8.0, 150 mM NaCl, 1 mM TCEP, or to an ion exchange chromatography followed by size exclusion chromatography. Purified proteins (yield 1—4 mg/L expression culture) were concentrated to 12–18 mg/mL and shock frozen for storage at −80 °C.
(§2) For sirtuin deacetylation activity measurements, we used two well-characterized assays, a coupled enzymatic assay, and the so-called FdL assay, respectively.
Km values for FdL-1 were determined in the presence of 3 mM NAD^+ and Km values for NAD^+ in presence of 0.5 mM FdL-1 peptide. […] Reactions were incubated for 20 min, followed by a 1:1 addition of developer (2 mM NAM and 10 mg/mL trypsin in assay buffer). After incubation for 45 min at room temperature, fluorescence was measured with a FluoDia T70 (Photon Technology International Inc., Birmingham, NJ, USA) with an excitation wavelength of 365 nm and emission wavelength of 465 nm. […]

[2] = biological target: T2, human full-length Sirt1 (fl-Sirt1) (Homo sapiens, UniProt Q96EB6); assay: Continuous coupled enzymatic sirtuin activity assay, fl-Sirt1; type: biochemical; settings: coupled-enzyme assay, n = 2
T2 construct: human full-length Sirt1 (fl-Sirt1) in pET-15b; made in house; host or cells: E. coli CodonPlus(DE3)
T2 sequence (Q96EB6 1-747): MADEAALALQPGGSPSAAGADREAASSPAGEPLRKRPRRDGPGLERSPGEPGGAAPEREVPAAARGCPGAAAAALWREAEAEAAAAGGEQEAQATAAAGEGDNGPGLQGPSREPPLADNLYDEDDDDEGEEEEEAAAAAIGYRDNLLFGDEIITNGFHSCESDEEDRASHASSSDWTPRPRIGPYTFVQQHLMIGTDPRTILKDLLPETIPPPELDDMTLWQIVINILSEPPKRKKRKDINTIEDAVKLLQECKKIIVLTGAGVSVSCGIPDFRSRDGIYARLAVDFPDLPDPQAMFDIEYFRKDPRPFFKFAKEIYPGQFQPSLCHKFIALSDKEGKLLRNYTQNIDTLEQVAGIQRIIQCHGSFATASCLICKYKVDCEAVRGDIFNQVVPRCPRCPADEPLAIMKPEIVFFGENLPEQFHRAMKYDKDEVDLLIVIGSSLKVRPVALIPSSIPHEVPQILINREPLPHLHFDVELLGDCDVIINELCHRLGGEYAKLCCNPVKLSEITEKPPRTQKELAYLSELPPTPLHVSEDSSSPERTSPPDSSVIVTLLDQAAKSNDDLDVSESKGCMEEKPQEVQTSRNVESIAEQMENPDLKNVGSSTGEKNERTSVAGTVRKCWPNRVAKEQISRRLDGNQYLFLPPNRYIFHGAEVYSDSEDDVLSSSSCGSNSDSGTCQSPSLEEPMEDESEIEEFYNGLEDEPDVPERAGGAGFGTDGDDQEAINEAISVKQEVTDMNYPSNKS
From the text: A human mini-Sirt1 construct (aa 183-505-(GGGS)2-641-665), as described in [27], was generated in a modified pET-19b with a TEV cleavage site. This construct and human full-length Sirt1 (fl-Sirt1) in pET-15b, Sirt1-(183-664) and Sirt1-(214-664) in pET-15b, mini-Sirt1-∆SBD (aa 214-505-(GGGS)2-641-665) and mini-Sirt1-∆ESA (aa 183–505) in a modified pET-19b with TEV cleavage site, Sirt2-(43-356) in a modified pET-19b with a His6-Sumo tag, Sirt3-(93-399) in a modified pET-32a with Trx-His6 tag and TEV cleavage site, hSirt3-(118-399) in pVFT3S (Sungkyunkwan University, Seoul, Republic of Korea) with His6-Trx tag and TEV cleavage site, Sirt5-(34-302) in pET-151/D-TOPO, and Sirt6-(1-355) in pQE80L.1 were purified as described. […]
Continuous coupled enzymatic sirtuin activity assays were conducted as described. […] Reactions were monitored for 1 h at room temperature by absorption spectroscopy at 340 nm in a UV/vis plate reader (BioTek). The slope for the linear range (typically 5–25 min) was evaluated after background correction with measurements without NAD^+. Additional control reactions were run by either omitting enzyme or omitting peptide substrate to ensure that the signal measured reflects the NAD+-dependent deacetylation activity of the sirtuin.

[3] = biological target: T3, mini-Sirt1 (Homo sapiens, UniProt Q96EB6); assay: Deacetylation of ac-Tat-46–54 as substrate by mini-Sirt1; type: biochemical
T3 construct: aa 183-505-(GGGS)2-641-665; made in house; host or cells: E. coli CodonPlus(DE3)
T3 sequence (Q96EB6 with tags, fused parts or gaps limits assumed): T1 sequence (Q96EB6 with tags, fused parts or gaps limits assumed)
Experimental: as §2
Continuous coupled enzymatic sirtuin activity assays were conducted as described. […] For assays with Tat peptides, 5% (v/v) DMSO was added to all reactions to enhance peptide solubility. Reactions were monitored for 1 h at room temperature by absorption spectroscopy at 340 nm in a UV/vis plate reader (BioTek). The slope for the linear range (typically 5–25 min) was evaluated after background correction with measurements without NAD^+. Additional control reactions were run by either omitting enzyme or omitting peptide substrate to ensure that the signal measured reflects the NAD+-dependent deacetylation activity of the sirtuin.

[4] = test system: human Sirt3-(118-399); assay: Crystal structure of Sirt3/Tat peptide complexes; type: binding; settings: Sirt3/Tat-37–59 at 1.95 Å; Sirt3/ac-Tat-46–54 at 1.65 Å
Experimental: For crystallization of the Sirt3 and Tat peptide complexes, 10 mg/mL human Sirt3-(118-399) in 20 mM Tris/HCl, pH 8.0, 150 mM NaCl, 5% (v/v) glycerol, 1 mM TCEP were incubated with 2 mM ac-Tat-46-54 or Tat-37-59 (the latter in 10% (v/v) DMSO) for 60 min at 20 °C. Both complexes were crystallized using the sitting-drop vapor-diffusion method at 20 °C with 100 mM MES, pH 6.0, 30% (w/v) PEG 200, 5% (w/v) PEG 3000 as reservoir solution for Sirt3/ac-Tat-46-54 and 100 mM CHES, pH 9.0, 20% (w/v) PEG 8000 for Sirt3/Tat-37-59. Crystals were cryoprotected with the respective reservoir solution supplemented with 25% (v/v) glycerol and flash-frozen in liquid nitrogen.
Diffraction data were collected at BESSY II, beamline MX14.1 operated by Helmholtz Zentrum Berlin (Berlin, Germany) at 0.9184 Å wavelength. Indexing, scaling, and merging of the Sirt3/ac-Tat-46-54 complex data were performed with XDSAPP [37]. The Sirt3/Tat-37–59 complex data were indexed and integrated with DIALS [38] and further processed with CCP4 programs Rebatch, Pointless, Aimless, and cTruncate, with 5% of the reflections assigned to Rfree with Uniqueify. The complex structures were phased by molecular replacement with PHASER [40] and using a Sirt3/ac-ACS/carba-NAD (PDB ID 4FVT) and a Sirt3/ADPr complex (PDB ID 4BVB), respectively, as a search model. […]

[5] = biological target: T2, human full-length Sirt1 (fl-Sirt1); assay: FdL deacetylation assay, fl-Sirt1; type: biochemical; settings: FdL assay, 100 µM FdL-1, 500 µM NAD^+, pH 7.8, 37 °C; n = 2; read-out: IC50, fl-Sirt1, truncated Tat-Cys^− constructs
From the text: as §1, with “Purified proteins (yield 1—4 mg/L expression culture) were concentrated to 12–18 mg/mL and shock frozen for storage at −80 °C.” left out

[6] = test system: Sirt1; settings: FdL assay, wildtype Tat; ref [9]; read-out: IC50, Sirt1 (previously reported); cited from earlier work

Q: For SYGRKKRRQ [Tat-46–54], which IC50 ([1]; 37 °C, pH 7.8, ± s.d., read-out: IC50 (FdL assay), mini-Sirt1, non-acetylated Tat-46–54) is on record?
A: Its IC50 is 131 ± 88.1 µM.

Q: Which results are given for “Tat-49–60: synthetic non-acetylated Tat fragment, residues 49–60 (RKKRRQRRRPSQ)”?
A: inhibition of mini-Sirt1 by synthetic Tat peptides (Figure 2F) ([1]; dose-dependent): weaker inhibition; inhibition of mini-Sirt1, titration (Figure 2G) ([1]; titration): neither Tat-31–49 nor Tat-49–60 alone was sufficient for significant inhibition

Q: Which “effect on fl-Sirt1 activity upon addition to assay containing p53-peptide” value ([2]; 100 µM ac-p53 as basal substrate) does the source give for “ac-Tat-46–54: Lys50-acetylated Tat-46–54 peptide (SYGRK(Ac)KRRQ)” here?
A: The value was “expected increase of activity”.

Q: And the “onset of inhibition upon addition to assay containing p53-peptide” value ([2]; fl-Sirt1, 100 µM ac-p53 as basal substrate)?
A: Its value is “no indications of instant or delayed onset of inhibition”.

Q: And the “Sirt1-dependent deacetylation (as substrate)” value ([3]; Michaelis–Menten kinetics, mini-Sirt1, compared with ac-p53-Lys382, n = 3)?
A: Its value is “efficient Sirt1-dependent deacetylation, even slightly more efficient than for its standard substrate peptide ac-p53-Lys382”.

Q: What about the “inhibitory effects at later time points of the deacetylation assay” value ([3]; time-course for deacetylation by mini-Sirt1, n = 3) of the same substance?
A: Its value is “did not observe any inhibitory effects at later time points”.

Q: What about the “binding site/mode in Sirt3 crystal structure” value [4] of the same substance?
A: Its value is “inserted in the substrate binding groove in the typical, β-sheet-like fashion”.

Q: Which IC50 [5] does the source give for “residues 21–63 of Tat-Cys^−: construct also lacking the N-terminal region from aa 1–20 (ASNRAHAKKSAYHSQVAFITKGLGISYGRKKRRQRRRPSQGGQ)” here?
A: The IC50 was roughly 30 µM.

Q: For “wildtype Tat: HIV1 transactivator of transcription protein, wildtype, as previously reported”, which IC50 [6] is on record?
A: The IC50 was 3.5 µM.
